Data reported in article PMC5687031 (Molecular Biology of the Cell, 2017).

Tests used:
Spc110^891-944 [1] = target: T1, Spc110^891-944 (S. cerevisiae, UniProt P32380 891-944); assay: SAXS
T1 sequence (looked up): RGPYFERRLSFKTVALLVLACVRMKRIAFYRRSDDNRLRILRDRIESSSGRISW

Spc110^891-944 [2] = target: T1, Spc110^891-944; assay: crystal structure
crystal structure = target: the molecule itself; assay: crystal structure

B1: Kluyveromyces lactis calmodulin (natural protein)
chain: not shown
modifications: disulfide between Cys79 of the two calmodulins in the crystal
stoichiometry N (Spc110^891-944 [1]): 1 calmodulin per Spc110^891-944
stoichiometry N (Spc110^891-944 [2]): 1 calmodulin per Spc110 CBD (2:2)
stoichiometry N (crystal structure): 2 calmodulin chains
